Measured values published in paper doi:10.1101/2025.02.04.635266.

Molecular target: IgG1-DNP-E430G (human)
Experiment: single molecule force spectroscopy

koff: 1.8 s⁻¹
Substance: DNP-unspecific IgG1-E430G (tip-linked) (antibody)
